{
  "source": "patent US20200270352A1",
  "about": "(PIERRE FABRE MEDICAMENT, published 2020)",
  "binders": {"B1": {"name": "murine antibody 212A11 (hybridoma CNCM I-4773) (antibody, V domains shown)", "VH": "QVQLQQSGPELVKPGASVKMSCKASGYTFTSYYIHWVKQRPGQGLEWIGWIWPGDGSTKYNEKFKGKTTLTADKSSSTAYMFLSSLTSEDSAVYFCASPMITPNYAMDYWGQGASVTVSS", "VL": "DIQMTQTTSSLSASLGDRVTISCRASQDINKYLNWYQQQPDGTVKLLIYYTSRLHSGVPSRFSGRGSGTDYSLTISNLEQEDIATYFCQQGSTLPYTFGGGTKLEIK", "notes": "also called m212A11"}, "B2": {"name": "chimeric antibody c212A11 (antibody, human IgG1, kappa, V domains shown)", "VH": "B1 VH", "VL": "DIQMTQTTSSLSASLGDRVTISCRASQDINKYLNWYQQQPDGTVKLLIYYTSRLHSGVPSRFSGRGSGTDYSLTISNLEQEDIATYFCQQGSTLPYTFGGGTKLEIKR"}, "B3": {"name": "murine antibody 214F8 (hybridoma CNCM I-4775) (antibody, V domains shown)", "VH": "B1 VH with P9S, M20L, K63R", "VL": "B1 VL with I21F, N30S, V44I, S76T, T93A", "notes": "also called m214F8"}, "B4": {"name": "chimeric antibody c219D6 (antibody, human IgG1, kappa, V domains shown)", "VH": "B1 VH with A16D, T28S, Y33F, A72T, S84N", "VL": "B2 VL with N30S"}, "B5": {"name": "murine antibody 208F2 (hybridoma CNCM I-4757) (antibody, V domains shown)", "VH": "B1 VH with H35Y, I48L, G66D, S77N", "VL": "B1 VL with N30S, V44I, L78V", "notes": "also called m208F2"}, "B6": {"name": "murine antibody 219D6 (hybridoma CNCM I-4736) (antibody, V domains shown)", "VH": "B1 VH with A16D, T28S, Y33F, A72T, S84N", "VL": "B1 VL with N30S", "notes": "also called m219D6"}, "B7": {"name": "chimeric antibody c208F2 (antibody, human IgG1, kappa, V domains shown)", "VH": "B1 VH with H35Y, I48L, G66D, S77N", "VL": "B2 VL with N30S, V44I, L78V"}, "B8": {"name": "murine antibody 213B10 (hybridoma CNCM I-4774) (antibody, V domains shown)", "VH": "B1 VH with P9S, K63R", "VL": "B1 VL with N30S, V44I, S76T, T93A", "notes": "also called m213B10"}, "B9": {"name": "chimeric antibody c213B10 (antibody, human IgG1, kappa)", "heavy": "not shown", "light": "DIQMTQTTSSLSASLGDRVTISCRASQDISKYLNWYQQQPDGTIKLLIYYTSRLHSGVPSRFSGRGSGTDYSLTITNLEQEDIATYFCQQGSALPYTFGGGTKLEIKRTVAAPSVFIFPPSDEQLKSGTASVVCLLNNFYPREAKVQWKVDNALQSGNSQESVTEQDSKDSTYSLSSTLTLSKADYEKHKVYACEVTHQGLSSPVTKSFNRGEC"}, "B10": {"name": "chimeric antibody c214F8 (antibody, human IgG1, kappa)", "heavy": "not shown", "light": "B9 light with I21F"}, "B11": {"name": "humanized antibody hz208F2 VH3/VL3 (hz208F2 H026/L024) (antibody, human IgG1, kappa, V domains shown)", "VH": "QVQLVQSGAEVKKPGASVKMSCKASGYTFTSYYIYWVKQAPGQGLEWLGWIWPGDGSTKYNEKFQGRVTLTADKSSNTAYMFLSSLRSEDTAVYFCASPMITPNYAMDYWGQGTLVTVSS", "VL": "DIQMTQSPSSLSASVGDRVTISCRASQDISKYLNWYQQKPGKAPKLLIYYTSRLHSGVPSRFSGRGSGTDYSLTISNLQPEDFATYFCQQGSTLPYTFGGGTKVEIKR", "notes": "also called H26/L024; first humanized form of 208F2"}},
  "note": "Where a chain is given by its changes, count along the chain named.",
  "data": [
    {"target": "T1, human IGF-1R, native, on cells (MCF-7, hIGF-1R transfected cells, primary normal human cells) (human, UniProt P08069 31-1367)", "assay": "cell-based or functional assay", "units": {"inhibition of hIGF-1R phosphorylation in response to IGF-1 (MCF-7 cells)": "%", "% of pIGF-1R compared to IGF-1 (MCF-7 cells, 10 µg/ml Ab)": "%"}, "values": [
      {"binder": "B1", "inhibition of hIGF-1R phosphorylation in response to IGF-1 (MCF-7 cells)": "> 80"},
      {"binder": "B2", "% of pIGF-1R compared to IGF-1 (MCF-7 cells, 10 µg/ml Ab)": "< 10"},
      {"binder": "B3", "inhibition of hIGF-1R phosphorylation in response to IGF-1 (MCF-7 cells)": "> 80"},
      {"binder": "B4", "% of pIGF-1R compared to IGF-1 (MCF-7 cells, 10 µg/ml Ab)": "< 10"},
      {"binder": "B5", "inhibition of hIGF-1R phosphorylation in response to IGF-1 (MCF-7 cells)": "> 80"},
      {"binder": "B6", "inhibition of hIGF-1R phosphorylation in response to IGF-1 (MCF-7 cells)": "> 80"},
      {"binder": "B7", "% of pIGF-1R compared to IGF-1 (MCF-7 cells, 10 µg/ml Ab)": "< 10"},
      {"binder": "B8", "inhibition of hIGF-1R phosphorylation in response to IGF-1 (MCF-7 cells)": "> 80"},
      {"binder": "B9", "% of pIGF-1R compared to IGF-1 (MCF-7 cells, 10 µg/ml Ab)": "< 10"},
      {"binder": "B10", "% of pIGF-1R compared to IGF-1 (MCF-7 cells, 10 µg/ml Ab)": "< 10"}
    ]},
    {"target": "T1, human IGF-1R, native, on cells (MCF-7, …)", "assay": "cell-based or functional assay", "remark": "another data set of the same source", "units": {"% internalization (MCF-7)": "%", "ΔMFI (MFI 4°C - MFI 37°C, MCF-7, 10 µg/ml, 4 h)": "MFI"}, "values": [
      {"binder": "B11", "% internalization (MCF-7)": 87, "ΔMFI (MFI 4°C - MFI 37°C, MCF-7, 10 µg/ml, 4 h)": 344},
      {"binder": "B5", "% internalization (MCF-7)": 88, "ΔMFI (MFI 4°C - MFI 37°C, MCF-7, 10 µg/ml, 4 h)": 294},
      {"binder": "B7", "% internalization (MCF-7)": 82, "ΔMFI (MFI 4°C - MFI 37°C, MCF-7, 10 µg/ml, 4 h)": 278}
    ]},
    {"target": "T2, monkey IGF-1R on COS-7 cells (African green monkey kidney) (monkey (African green monkey))", "T2 construct": "whole, on cells; also called monkey native IGF-1R", "assay": "FACS on Cos-7 cells (monkey IGF1R+), SNT at 5 µg/ml", "units": {"MFI": "MFI"}, "values": [
      {"binder": "B1", "MFI": 126}
    ]},
    {"target": "T1, human IGF-1R, native, on cells (MCF-7, …)", "assay": "cell-based or functional assay", "remark": "another data set of the same source", "units": {"MCF7 internalisation assay: % remaining rh IGF1R": "%", "MCF7 internalisation assay: MFI 37°C": "MFI", "MCF7 internalisation assay: Δ (MFI 4°C - MFI 37°C)": "MFI"}, "values": [
      {"binder": "B3", "MCF7 internalisation assay: % remaining rh IGF1R": 29, "MCF7 internalisation assay: MFI 37°C": 111, "MCF7 internalisation assay: Δ (MFI 4°C - MFI 37°C)": 275},
      {"binder": "B5", "MCF7 internalisation assay: % remaining rh IGF1R": 27, "MCF7 internalisation assay: MFI 37°C": 94, "MCF7 internalisation assay: Δ (MFI 4°C - MFI 37°C)": 261},
      {"binder": "B6", "MCF7 internalisation assay: % remaining rh IGF1R": 30, "MCF7 internalisation assay: Δ (MFI 4°C - MFI 37°C)": 243},
      {"binder": "B8", "MCF7 internalisation assay: % remaining rh IGF1R": 30, "MCF7 internalisation assay: Δ (MFI 4°C - MFI 37°C)": 271}
    ]},
    {"target": "T1, human IGF-1R, native, on cells (MCF-7, …)", "assay": "cell-based or functional assay", "remark": "another data set of the same source", "units": {"ΔMFI (MFI 4°C - MFI 37°C, MCF-7)": "MFI"}, "values": [
      {"binder": "B2", "ΔMFI (MFI 4°C - MFI 37°C, MCF-7)": 322, "ΔMFI_EC50 (MCF-7)": "2.7e-10"},
      {"binder": "B4", "ΔMFI (MFI 4°C - MFI 37°C, MCF-7)": 353, "ΔMFI_EC50 (MCF-7)": "4.4e-10"},
      {"binder": "B7", "ΔMFI (MFI 4°C - MFI 37°C, MCF-7)": 288, "ΔMFI_EC50 (MCF-7)": "1.8e-10"},
      {"binder": "B9", "ΔMFI (MFI 4°C - MFI 37°C, MCF-7)": 369, "ΔMFI_EC50 (MCF-7)": "2.3e-10"},
      {"binder": "B10", "ΔMFI (MFI 4°C - MFI 37°C, MCF-7)": 403, "ΔMFI_EC50 (MCF-7)": "2.2e-10"}
    ]},
    {"target": "T3, human insulin receptor on cells (IM9 cells; hIR+ transfected cell line, NIH 3T3 IR+) (human, UniProt P06213 28-1382)", "T3 construct": "whole, on cells; also called human IR", "assay": "FACS titration on NIH 3T3 IR+ cells", "values": [
      {"binder": "B11", "binding result": "no binding (tested: log[M] about -7.2 (about 6e-8 M))"}
    ]},
    {"target": "T4, rmIGF-1R protein (murine IGF-1R extracellular domain, R&D Systems cat 6630-GR/Fc) (murine, UniProt Q60751 31-936)", "T4 construct": "extracellular domain; Bought reagent; not shown: Fc part implied by the catalogue number /Fc; not described", "T4 sequence (Q60751 31-936)": "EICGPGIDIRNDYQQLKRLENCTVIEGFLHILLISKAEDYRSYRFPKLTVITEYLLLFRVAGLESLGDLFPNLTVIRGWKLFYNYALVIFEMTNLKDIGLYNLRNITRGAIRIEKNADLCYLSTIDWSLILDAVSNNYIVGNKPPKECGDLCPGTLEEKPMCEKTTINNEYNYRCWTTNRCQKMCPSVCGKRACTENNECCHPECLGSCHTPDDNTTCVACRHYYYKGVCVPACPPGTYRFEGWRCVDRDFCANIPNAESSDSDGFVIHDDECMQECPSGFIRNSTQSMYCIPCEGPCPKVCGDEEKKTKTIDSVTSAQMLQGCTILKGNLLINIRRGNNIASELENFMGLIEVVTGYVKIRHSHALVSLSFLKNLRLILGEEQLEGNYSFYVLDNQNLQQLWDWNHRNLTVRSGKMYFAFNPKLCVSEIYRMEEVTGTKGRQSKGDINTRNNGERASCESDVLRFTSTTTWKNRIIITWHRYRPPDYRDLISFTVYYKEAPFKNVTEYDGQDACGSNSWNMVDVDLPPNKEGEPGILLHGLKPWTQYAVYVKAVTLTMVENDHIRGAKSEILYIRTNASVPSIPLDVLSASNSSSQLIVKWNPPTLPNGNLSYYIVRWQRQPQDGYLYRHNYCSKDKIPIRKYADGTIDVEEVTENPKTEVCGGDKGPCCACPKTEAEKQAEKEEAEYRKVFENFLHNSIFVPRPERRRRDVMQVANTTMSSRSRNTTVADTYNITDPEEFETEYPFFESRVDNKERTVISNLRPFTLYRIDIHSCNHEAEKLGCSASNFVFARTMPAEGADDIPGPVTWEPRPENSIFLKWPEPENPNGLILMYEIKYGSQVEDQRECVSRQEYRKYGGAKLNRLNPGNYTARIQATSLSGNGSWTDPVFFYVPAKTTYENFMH", "assay": "ELISA on coated rmIGF-1R, SNT at 5 µg/ml", "experimental": "In addition three ELISAs were performed (either before or after cloning) to study the binding of antibodies on the recombinant human (hIGF-1R) and murine (mIGF-1R) proteins, and on the recombinant human Insulin Receptor (hIR) protein. […] The plates were then blocked with PBS containing 0.5% gelatin (#22151, Serva Electrophoresis GmbH, Heidelberg, Germany) for 2 h at 37° C. Once the saturation buffer discarded by flicking plates, 100 μl of each supernatant dilution were added to each well (either undiluted hybridoma supernatant either supernatant serial dilutions) and incubated for 1 h at 37° C. […] Then, ELISA plates were washed 3-times and the TMB (#UP664782, Uptima, Interchim, France) substrate is added. After a 10 min incubation time at room temperature, the reaction was stopped using 1 M sulfuric acid and the optical density at 450 nm is measured.", "units": {"D.O 450 nm": "OD 450 nm"}, "values": [
      {"binder": "B1", "D.O 450 nm": 0.102},
      {"binder": "B3", "D.O 450 nm": 0.102},
      {"binder": "B5", "D.O 450 nm": 0.099},
      {"binder": "B6", "D.O 450 nm": 0.112},
      {"binder": "B8", "D.O 450 nm": 0.127}
    ]}
  ]
}
